This is an account of results in publication PMC5238724.

This assay has as its target Drosophila protamine B (Prot B), untagged recombinant (Drosophila). Description: non-reducing SDS-PAGE of disulfide-linked oligomers.

“Drosophila protamine B (Prot B), untagged recombinant (natural protein)”: the stoichiometry N amounted to 2.

For orientation: stoichiometry N means the number of molecules, sites or subunits per partner or assembly.
